Data as given in US20180155451A1 (published 2018).

Legend:
[1] = target: T1, FcγRIIa H (human, UniProt P12318 34-217); assay: SPR (Biacore), antibody captured, FcγR as analyte; relative to HeCon Ab
T1 construct: extracellular domain; Soluble extracellular domain with C-terminal His tag, expressed in FreeStyle293 cells; also called FcgRIIa H; 2aH; not shown: C-terminal His tag
T1 sequence (looked up): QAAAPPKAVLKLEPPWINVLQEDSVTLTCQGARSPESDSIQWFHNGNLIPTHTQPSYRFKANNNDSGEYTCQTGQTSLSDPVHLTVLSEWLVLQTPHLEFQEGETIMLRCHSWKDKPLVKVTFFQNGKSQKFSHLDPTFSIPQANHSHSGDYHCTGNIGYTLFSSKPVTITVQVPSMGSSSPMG
Method: (§1) The heterodimerized antibodies He Abs in which one of the H chains was introduced with an alteration were assayed for their binding activities to each activating FcγR and inhibitory FcγR according to the method described in Example 4. […] The activating FcγRs in FIGS. 26, 27, 28, and 29 are FcγRIa, FcγRIIa (R), FcγRIIa (H), and FcγRIIIa, respectively.
(§2) Analysis of interaction between objective antibody and the FcγR was carried out using Biacore T100 (GE Healthcare). HBS-EP+ (GE Healthcare) was used as the running buffer, and the measurement temperature was set to 25° C. Chips produced by immobilizing the antigen peptide by the amine coupling method to a Series S Sencor Chip CM5 (GE Healthcare), or alternatively, chips produced by allowing preliminarily biotinylated antigen peptides to interact with and immobilize onto a Series S Sensor Chip SA (certified) (GE Healthcare) were used. Antibodies of interest were captured onto an antigen peptide-immobilized chip, and allowed to interact to each FcγR diluted with running buffer. To regenerate and repeatedly use the chip, the antibodies captured on the chip were washed off by reacting 10 mM glycine-HCl, pH 1.5.

[2] = target: T2, FcγRIIb (human, UniProt P31994 43-217); assay: as above
T2 construct: extracellular domain; Soluble extracellular domain with C-terminal His tag, expressed in FreeStyle293 cells; also called FcgRIIb; 2b; not shown: C-terminal His tag
T2 sequence (looked up): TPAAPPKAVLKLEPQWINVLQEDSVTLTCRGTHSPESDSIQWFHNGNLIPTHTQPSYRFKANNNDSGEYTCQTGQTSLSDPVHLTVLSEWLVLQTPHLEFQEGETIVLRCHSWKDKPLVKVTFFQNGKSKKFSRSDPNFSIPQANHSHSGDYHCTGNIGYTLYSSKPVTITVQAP
Method: as §1, §2

Row | Binder | He/Con_2aH [1] | He/Con_2b [2]
1 | GpH7-A5/GpH7-B3 variant G237_18N/GpL16-k0 (antibody, human IgG1, kappa, Heterodimerized anti-glypican-3 IgG1; alteration in the GpH7-B3 chain only; also called He Ab) heavy 1: not shown heavy 2: not shown light: DIVMTQSPLSLPVTPGEPASISCQASESLVHSNRNTYLHWYLQKPGQSPQLLIYKVSNRFSGVPDRFSGSGSGTDFTLKISRVEAEDVGVYYCSQNTHVPPTFGQGTKVEIERTVAAPSVFIFPPSDEQLKSGTASVVCLLNNFYPREAKVQWKVDNALQSGNSQESVTEQDSKDSTYSLSSTLTLSKADYEKHKVYACEVTHQGLSSPVTKSFNRGEC | 15.2 % of GpH7-A5/GpH7-B3/GpL16-k0 (=100) | 180 % of GpH7-A5/GpH7-B3/GpL16-k0 (=100)
2 | GpH7-A5/GpH7-B3 variant P238_01G/GpL16-k0 (antibody, human IgG1, kappa, Heterodimerized anti-glypican-3 IgG1; alteration in the GpH7-B3 chain only; also called He Ab) heavy 1: not shown heavy 2: not shown light: DIVMTQSPLSLPVTPGEPASISCQASESLVHSNRNTYLHWYLQKPGQSPQLLIYKVSNRFSGVPDRFSGSGSGTDFTLKISRVEAEDVGVYYCSQNTHVPPTFGQGTKVEIERTVAAPSVFIFPPSDEQLKSGTASVVCLLNNFYPREAKVQWKVDNALQSGNSQESVTEQDSKDSTYSLSSTLTLSKADYEKHKVYACEVTHQGLSSPVTKSFNRGEC | 37.3 % of GpH7-A5/GpH7-B3/GpL16-k0 (=100) | 56 % of GpH7-A5/GpH7-B3/GpL16-k0 (=100)
3 | GpH7-A5/GpH7-B3 variant G237_20W/GpL16-k0 (antibody, human IgG1, kappa, Heterodimerized anti-glypican-3 IgG1; alteration in the GpH7-B3 chain only; also called He Ab) heavy 1: not shown heavy 2: not shown light: DIVMTQSPLSLPVTPGEPASISCQASESLVHSNRNTYLHWYLQKPGQSPQLLIYKVSNRFSGVPDRFSGSGSGTDFTLKISRVEAEDVGVYYCSQNTHVPPTFGQGTKVEIERTVAAPSVFIFPPSDEQLKSGTASVVCLLNNFYPREAKVQWKVDNALQSGNSQESVTEQDSKDSTYSLSSTLTLSKADYEKHKVYACEVTHQGLSSPVTKSFNRGEC | 31.6 % of GpH7-A5/GpH7-B3/GpL16-k0 (=100) | 193 % of GpH7-A5/GpH7-B3/GpL16-k0 (=100)
4 | GpH7-A5/GpH7-B3 variant G237_09D/GpL16-k0 (antibody, human IgG1, kappa, Heterodimerized anti-glypican-3 IgG1; alteration in the GpH7-B3 chain only; also called He Ab) heavy 1: not shown heavy 2: not shown light: DIVMTQSPLSLPVTPGEPASISCQASESLVHSNRNTYLHWYLQKPGQSPQLLIYKVSNRFSGVPDRFSGSGSGTDFTLKISRVEAEDVGVYYCSQNTHVPPTFGQGTKVEIERTVAAPSVFIFPPSDEQLKSGTASVVCLLNNFYPREAKVQWKVDNALQSGNSQESVTEQDSKDSTYSLSSTLTLSKADYEKHKVYACEVTHQGLSSPVTKSFNRGEC | 11.1 % of GpH7-A5/GpH7-B3/GpL16-k0 (=100) | 223 % of GpH7-A5/GpH7-B3/GpL16-k0 (=100)
5 | GpH7-A5/GpH7-B3 variant G237_03V/GpL16-k0 (antibody, human IgG1, kappa, Heterodimerized anti-glypican-3 IgG1; alteration in the GpH7-B3 chain only; also called He Ab) heavy 1: not shown heavy 2: not shown light: DIVMTQSPLSLPVTPGEPASISCQASESLVHSNRNTYLHWYLQKPGQSPQLLIYKVSNRFSGVPDRFSGSGSGTDFTLKISRVEAEDVGVYYCSQNTHVPPTFGQGTKVEIERTVAAPSVFIFPPSDEQLKSGTASVVCLLNNFYPREAKVQWKVDNALQSGNSQESVTEQDSKDSTYSLSSTLTLSKADYEKHKVYACEVTHQGLSSPVTKSFNRGEC | 39.4 % of GpH7-A5/GpH7-B3/GpL16-k0 (=100) | 61.4 % of GpH7-A5/GpH7-B3/GpL16-k0 (=100)
6 | GpH7-A5/GpH7-B3 variant G237_14T/GpL16-k0 (antibody, human IgG1, kappa, Heterodimerized anti-glypican-3 IgG1; alteration in the GpH7-B3 chain only; also called He Ab) heavy 1: not shown heavy 2: not shown light: DIVMTQSPLSLPVTPGEPASISCQASESLVHSNRNTYLHWYLQKPGQSPQLLIYKVSNRFSGVPDRFSGSGSGTDFTLKISRVEAEDVGVYYCSQNTHVPPTFGQGTKVEIERTVAAPSVFIFPPSDEQLKSGTASVVCLLNNFYPREAKVQWKVDNALQSGNSQESVTEQDSKDSTYSLSSTLTLSKADYEKHKVYACEVTHQGLSSPVTKSFNRGEC | 31.8 % of GpH7-A5/GpH7-B3/GpL16-k0 (=100) | 54.8 % of GpH7-A5/GpH7-B3/GpL16-k0 (=100)

Results, then the binder that gave them:

Row | He/Con_2aH [1] | He/Con_2b [2] | Binder
7 | 57.6 % of GpH7-A5/GpH7-B3/GpL16-k0 (=100) | 80 % of GpH7-A5/GpH7-B3/GpL16-k0 (=100) | GpH7-A5/GpH7-B3 variant P238_07I/GpL16-k0 (antibody, human IgG1, kappa, Heterodimerized anti-glypican-3 IgG1; alteration in the GpH7-B3 chain only; also called He Ab) heavy 1: not shown heavy 2: not shown light: DIVMTQSPLSLPVTPGEPASISCQASESLVHSNRNTYLHWYLQKPGQSPQLLIYKVSNRFSGVPDRFSGSGSGTDFTLKISRVEAEDVGVYYCSQNTHVPPTFGQGTKVEIERTVAAPSVFIFPPSDEQLKSGTASVVCLLNNFYPREAKVQWKVDNALQSGNSQESVTEQDSKDSTYSLSSTLTLSKADYEKHKVYACEVTHQGLSSPVTKSFNRGEC
8 | 34.3 % of GpH7-A5/GpH7-B3/GpL16-k0 (=100) | 210 % of GpH7-A5/GpH7-B3/GpL16-k0 (=100) | GpH7-A5/GpH7-B3 variant S267_06M/GpL16-k0 (antibody, human IgG1, kappa, Heterodimerized anti-glypican-3 IgG1; alteration in the GpH7-B3 chain only; also called He Ab) heavy 1: not shown heavy 2: not shown light: DIVMTQSPLSLPVTPGEPASISCQASESLVHSNRNTYLHWYLQKPGQSPQLLIYKVSNRFSGVPDRFSGSGSGTDFTLKISRVEAEDVGVYYCSQNTHVPPTFGQGTKVEIERTVAAPSVFIFPPSDEQLKSGTASVVCLLNNFYPREAKVQWKVDNALQSGNSQESVTEQDSKDSTYSLSSTLTLSKADYEKHKVYACEVTHQGLSSPVTKSFNRGEC
9 | 63.3 % of GpH7-A5/GpH7-B3/GpL16-k0 (=100) | 104 % of GpH7-A5/GpH7-B3/GpL16-k0 (=100) | GpH7-A5/GpH7-B3 variant S267_14T/GpL16-k0 (antibody, human IgG1, kappa, Heterodimerized anti-glypican-3 IgG1; alteration in the GpH7-B3 chain only; also called He Ab) heavy 1: not shown heavy 2: not shown light: DIVMTQSPLSLPVTPGEPASISCQASESLVHSNRNTYLHWYLQKPGQSPQLLIYKVSNRFSGVPDRFSGSGSGTDFTLKISRVEAEDVGVYYCSQNTHVPPTFGQGTKVEIERTVAAPSVFIFPPSDEQLKSGTASVVCLLNNFYPREAKVQWKVDNALQSGNSQESVTEQDSKDSTYSLSSTLTLSKADYEKHKVYACEVTHQGLSSPVTKSFNRGEC
